“Also recorded” adds a separate entry of the source.
How the values were obtained:
SLC2A4 pseudotyped VLPs = molecular target: T1, SLC2A4 pseudotyped VLPs (Homo sapiens, UniProt P14672); experiment: ELISA-based VLP binding assay, SLC2A4; conditions: compared to MOCK VLPs, FIG. 3
T1 sequence (P14672 1-509): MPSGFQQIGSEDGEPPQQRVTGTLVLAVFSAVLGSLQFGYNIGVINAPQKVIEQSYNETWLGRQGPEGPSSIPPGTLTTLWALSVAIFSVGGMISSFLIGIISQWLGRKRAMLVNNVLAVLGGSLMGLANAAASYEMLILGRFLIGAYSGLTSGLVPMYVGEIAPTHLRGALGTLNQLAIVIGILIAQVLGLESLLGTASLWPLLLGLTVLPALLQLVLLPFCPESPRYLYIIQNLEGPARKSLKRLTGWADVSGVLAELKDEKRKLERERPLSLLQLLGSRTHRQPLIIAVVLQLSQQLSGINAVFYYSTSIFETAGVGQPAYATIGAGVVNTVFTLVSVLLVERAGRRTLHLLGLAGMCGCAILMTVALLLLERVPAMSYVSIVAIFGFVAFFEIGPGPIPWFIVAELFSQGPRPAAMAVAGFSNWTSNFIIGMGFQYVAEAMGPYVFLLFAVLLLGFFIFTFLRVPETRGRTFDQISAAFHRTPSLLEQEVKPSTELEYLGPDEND
Experimental: (§1) An ELISA-based VLP binding assay was carried out to compare the EC50 values of antibody clones (FIG. 1). Similarly, ELISA based VLP binding assay was performed to compare the binding of the antibodies to different glucose transporters (FIG. 3). MaxiSorp™ high-capacity binding ELISA plate (Thermo Fisher Scientific, US) were coated with 5 μg/mL SLC2A1, SLC2A2, SLC2A3, SLC2A4 pseudotyped VLPs or MOCK VLPs in PBS overnight. The plate was washed and blocked for 1 h with 0.05% Tween 20, 2% BSA in PBS. Serial dilutions of antibodies were incubated on a washed plate for 1 hour, followed by a 1-hour incubation with goat anti-human IgG horse radish peroxidase (HRP) conjugated (Invitrogen) antibody. TMB (3,3′,5,5′-Tetramethylbenzidine) Solution VII (Biopanda Diagnostics) was used as a substrate for HRP and 0.5 M H2SO4 was used as stop solution. After every step, the wells were washed with 0.05% Tween 20, 0.1% Proclin 300 PBS solution. Absorption at 450 nm was measured with Thermo Scientific™ Multiskan™ FC Microplate Photometer. Exemplary wise used antibodies 1G2 #9, 2A2 #12, 2E5 #22, 5G5 #30, 6F12 #33, 7C3 #39 all bound SLC2A1 VLPs with low nanomolar EC50 values (FIG. 1).

MCF7 breast cancer cells = experiment: Cell proliferation inhibition assay (Incucyte), MCF7; format: cell-based; conditions: for MCF7 cell growth in combination with phenformin: co-treatment with phenformin, FIGS. 7 and 9
Experimental: Incucyte S3 Live cell analysis instrument and Cell-by-Cell analysis software module (Sartorius) were used to evaluate the effect of anti-SLC2A1 antibodies on cancer cell proliferation label-free (FIGS. 5-11). MCF7, PC3 or PANC1 or MIAPACA2 cells were plated on flat bottom tissue culture 96-well plate in […] medium (Ximbio) supplemented with 2.5% FBS. Cells were incubated overnight and 0.02 nM to 13 μM anti-SLC2A1 antibodies, anti-HEL isotype control, PBS or BAY-876 were added to the cells alone or in combination with metformin (CaymanChem), phenformin (Sigma Aldrich) or IACS-010759 (CaymanChem). Cell confluence or object count was measured for 24 to 96 hours with Incucyte S3 and normalized to timepoint 0 h or 4h. anti-SLC2A1 antibodies inhibit cancer cell proliferation alone and especially in combination with complex-I inhibitors metformin, phenformin and IACS-010759. Exemplary antibodies 1G2 #9, 2A2 #12, 2E5 #22, 5G5 #30, 6F12 #33, 7C3 #39 and R14 #54 were used in proliferation assays.

SLC2A1 pseudotyped VLPs = molecular target: T2, SLC2A1 pseudotyped VLPs (Homo sapiens, UniProt P11166); experiment: ELISA-based SLC2A1 VLP binding assay; conditions: 5 μg/mL VLP coating, FIG. 1
T2 sequence (P11166 1-492): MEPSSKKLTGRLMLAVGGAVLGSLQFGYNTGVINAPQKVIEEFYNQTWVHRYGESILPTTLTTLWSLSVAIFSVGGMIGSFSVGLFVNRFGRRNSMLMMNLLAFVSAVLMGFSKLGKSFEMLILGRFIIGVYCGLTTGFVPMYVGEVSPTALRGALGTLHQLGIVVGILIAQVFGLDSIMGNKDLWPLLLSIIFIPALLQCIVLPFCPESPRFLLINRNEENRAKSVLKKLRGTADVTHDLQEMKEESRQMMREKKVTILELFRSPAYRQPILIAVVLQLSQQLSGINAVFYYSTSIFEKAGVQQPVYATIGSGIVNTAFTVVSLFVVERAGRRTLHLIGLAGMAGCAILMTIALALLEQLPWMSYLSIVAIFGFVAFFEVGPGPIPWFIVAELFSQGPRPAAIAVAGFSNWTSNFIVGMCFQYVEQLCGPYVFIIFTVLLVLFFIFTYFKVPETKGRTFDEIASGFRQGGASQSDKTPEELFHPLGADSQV
Experimental: as §1

[1] = molecular target: T3, HEK-293-ALL cells transfected with human SLC2A1 (Homo sapiens, UniProt P11166); experiment: 2-Deoxyglucose uptake assay (Glucose Uptake-Glo); format: cell-based; conditions: 2-hour incubation, 0.35 nM to 6.89 μM, 1 mM 2DG for 20 min, FIG. 4
T3 construct: expressed in transfected cells; host or cells: HEK-293-ALL
T3 sequence (P11166 1-492): T2 sequence (P11166 1-492)
Experimental: To evaluate if the described anti-SLC2A1 antibodies inhibit glucose uptake, a commercial Glucose Uptake-Glo Assay kit (Promega) was utilized according to manufacturer's instructions. In short, HEK-293-ALL cells were transfected with human SLC2A1 expression plasmid and were incubated at 37° C. overnight in the presence of 5% CO2. Cells were washed with 0.5% BSA PBS twice and 7000 cells were plated per well into white clear bottom 96-well plates in 0.5% BSA PBS in the presence of 0.35 nM to 6.89 μM anti-SLC2A1 antibodies or glucose uptake inhibitor BAY-876 (CaymanChem). Cells were incubated for 2 hours at room temperature. Glucose uptake was initiated by the addition of 1 mM 2-deoxyglucose (2DG) and was allowed to proceed for 20 min at 37° C. in the presence of 5% CO2. After adding STOP and neutralization reagents included in the kit, luminescence was measured using GloMax Explorer microplate reader (Promega). Nonspecific luminescence was measured in lysates from cells without (2DG) being added. Data was normalized to nonspecific luminescence and to the average value of luminescence in the presence of no inhibitors.

B1: 6F12 #33 (antibody, V domains shown)
VH: AVTLDESGGGLQTPGGALSLVCKASGFTFSDHAIFWVRQAPDKGLEFVAAISSGTGSWTAYATVVKGRATISRDNGQSTVRLQLNNLRAADTATYYCAKGAGSACCYAGSIDAWGHGTEVIVSS
VL: ALTQPSSVSANPGETVKITCSGGSSSSYYGWYQQKSPGSAPVTLIYYNDKRPSDIPSRFSGSKSGSTATLTITGVQVEDEAVYYCGTGDGSFAIFGAGTTLTVL
- binding to SLC2A4 VLPs (SLC2A4 pseudotyped VLPs): did not bind
- MCF7 cell growth in combination with IACS-010759 (MCF7 breast cancer cells; co-treatment with IACS-010759, FIG. 8): drastically inhibited
- MCF7 cell growth in combination with metformin (MCF7 breast cancer cells; co-treatment with metformin, FIG. 6): drastically inhibited
- MCF7 cell growth in combination with phenformin (MCF7 breast cancer cells): completely inhibit; also recorded: drastically inhibited; also recorded: most potent growth inhibitors
- EC50 of binding to SLC2A1 VLPs (SLC2A1 pseudotyped VLPs): low nanomolar
- glucose (2-deoxyglucose) uptake [1]: strong concentration dependent decrease

B2: 2E5 #22 (antibody, V domains shown)
VH: AVTLDESGGGLQTPGGALSLVCKASGFTFSTKGMGWVRQTPGKGLEWVAGISSMRRYTYYAPAVKGRATISRDNGQSTVRLQLSSLRAEDSGTYYCARDATYCSWTTSTCGWSGGTIDAWGHGTEVIVSS
VL: ALTQPSSVSANLGGTVKITCSGGSGNYGWYQQKSPGSVPVTVIYSNDKRPSDIPSRFSGSGSGSTATLTITGVQVEDEAVYFCGSRDSSYVGLFGAGTTLTVL
- binding to SLC2A4 VLPs (SLC2A4 pseudotyped VLPs): did not bind; also recorded: Some binding
- MCF7 cell growth (confluence), single agent (MCF7 breast cancer cells; alone, Incucyte): only a modest inhibition
- MCF7 cell growth in combination with phenformin (MCF7 breast cancer cells): completely inhibit; also recorded: most potent growth inhibitors
- EC50 of binding to SLC2A1 VLPs (SLC2A1 pseudotyped VLPs): low nanomolar
- glucose (2-deoxyglucose) uptake [1]: strong concentration dependent decrease
